Results reported in US6793917 (SHIONOGI, dated 2004).

T1: CCR4 expressed on 293/EBNA-1 cells (human, UniProt P51679 1-360)
T1 construct: whole, on cells; also called CCR4 receptor
T1 sequence (looked up): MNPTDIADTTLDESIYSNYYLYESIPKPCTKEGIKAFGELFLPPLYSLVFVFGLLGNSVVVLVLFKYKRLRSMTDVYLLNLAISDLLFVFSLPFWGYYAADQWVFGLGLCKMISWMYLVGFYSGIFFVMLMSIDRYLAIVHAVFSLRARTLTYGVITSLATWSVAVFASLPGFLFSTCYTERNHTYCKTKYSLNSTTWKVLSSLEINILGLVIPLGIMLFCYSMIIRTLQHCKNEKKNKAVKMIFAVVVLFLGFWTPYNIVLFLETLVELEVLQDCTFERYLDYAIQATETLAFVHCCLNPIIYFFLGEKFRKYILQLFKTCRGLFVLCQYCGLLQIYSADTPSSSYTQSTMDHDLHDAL

T2: Duffy antigen/receptor for chemokine (DARC) on erythrocytes (UniProt Q16570 1-336)
T2 construct: whole, on cells
T2 sequence (looked up): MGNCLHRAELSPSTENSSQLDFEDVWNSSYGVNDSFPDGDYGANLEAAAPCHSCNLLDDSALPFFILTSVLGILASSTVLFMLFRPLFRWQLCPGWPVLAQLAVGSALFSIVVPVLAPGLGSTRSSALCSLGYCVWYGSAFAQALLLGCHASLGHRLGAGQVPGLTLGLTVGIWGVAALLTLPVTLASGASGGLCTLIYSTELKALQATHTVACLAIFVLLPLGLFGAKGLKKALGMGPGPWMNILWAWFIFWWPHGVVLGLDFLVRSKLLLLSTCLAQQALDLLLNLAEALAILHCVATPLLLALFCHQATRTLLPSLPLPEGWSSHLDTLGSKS

B1: human TARC (Thymus and Activation-Regulated Chemokine), mature secreted form, expressed in and purified from insect cells (ligand)
chain: ARGTNVGRECCLEYFKGAIPLRKLKTWYQTSEDCSRDAIVFVTVQGRAICSDPNNKRVKNAVKYLQSLERS
notes: also called hTARC; unlabeled TARC
B2: 125I-labeled human TARC (ligand)
chain: B1 chain
modifications: 125I label introduced with 125I-labeled Bolton-Hunter reagent (site not stated)
notes: specific activity 81.6 uCi/ug

Legend:
[1] = target: T1, CCR4 expressed on 293/EBNA-1 cells; experiment: displacement of 1 nM TARC-SEAP from 4x10^5 293/EBNA-1 cells expressing CCR4 by unlabeled TARC
Experimental: The binding experiment was conducted in 200 μl RPMI-1640 containing 20 mM HEPES (pH 7.4), 1% BSA, and 0.02% sodium azide. […] Cells were washed and dissolved in 50 μl 10 mM Tris-HCl (pH 8.0) containing 1% Triton X-100, and treated at 65° C. for 10 minutes to inactivate the phosphatase originated from the cells. After centrifugation, the AP activity in 25 μl of the supernatant was measured. The nonspecific binding was measured using 1 nM SEAP.

[2] = target: T3, receptor for TARC on Jurkat cell and certain other T-cells; experiment: displacement of 2 nM 125I-labeled TARC from Jurkat cells by unlabeled TARC, Scatchard analysis
T3 construct: also called TARC receptor; receptors for TARC

[3] = target: T2, Duffy antigen/receptor for chemokine …; experiment: displacement of 0.66 nM 125I-labeled TARC from 10^8 erythrocytes by unlabeled TARC, Scatchard analysis
Excerpt: It has been known that erythrocyte expresses a Duffy antigen/receptor for chemokine (DARC) to which various chemokines can be bound.

[4] = target: T3, receptor for TARC on Jurkat cell and …; experiment: saturation binding of 125I-labeled TARC to Jurkat cells, Scatchard analysis
Excerpt: To determine the binding constant and the number of receptor, conditions under which the binding reaches equilibrium were examined.

| Binder | IC50 [1] [nM] | Kd [2] [nM] | Kd [3] [nM] | Kd [4] [nM] |
| --- | --- | --- | --- | --- |
| B1 | ~3 | 2.1 | 17 |  |
| B2 |  |  |  | 2.1 |
